Measurements published in patent US12618845B2, “Methods and compositions for protein sequencing” (Quantum-Si Incorporated, priority 2018, dated 2026).
Like-named read-outs stand apart in the source and are kept apart here.

Tested on: peptide substrates
Type: biochemical

B1: V. anguillarum APN (protein)
chain: MEEKVWISIGGDATQTALRSGAQSLLPENLINQTSVWVGQVPVSELATLSHEMHENHQRCGGYMVHPSAQSAMSVSAMPLNLNAFSAPEITQQTTVNAWLPSVSAQQITSTITTLTQFKNRFYTTSTGAQASNWIADHWRSLSASLPASKVEQITHSGYNQKSVMLTITGSEKPDEWVVIGGHLDSTLGSRTNESSIAPGADDDASGIAGVTEIIRLLSEQNFRPKRSIAFMAYAAEEVGLRGSQDLANRFKAEGKKVMSVMQLDMTNYQGSREDIVFITDYTDSNFTQYLTQLLDEYLPSLTYGFDTCGYACSDHASWHAVGYPAAMPFESKFNDYNPNIHSPQDTLQNSDPTGFHAVKFTKLGLAYVVEMGNASTPPTPSNQLKNGVPVNGLSASRNSKTWYQFELQEAGNLSIVLSGGSGDADLYVKYQTDADLQQYDCRPYRSGNNETCQFSNAQPGRYSILLHGYNNYSNASLVANAQ
In the case of B1, the “HPLC Assay Conv” value (substrate AAPAAP{LYSN3}NH2 (SEQ ID NO: 98), 1 mM peptide, 2 μM enzyme, 2.5 mM ZnCl2, 25 mM Tris pH 8.0, 30° C./1 hr) is reported as 50%, the “HPLC Assay Conv” value (substrate KKPKKP{LYSN3}NH2 (SEQ ID NO: 100), 1 mM peptide, 2 μM enzyme, 2.5 mM ZnCl2, 25 mM Tris pH 8.0, 30° C./1 hr) is reported as less than 5% and the “HPLC Assay Conv” value (substrate RRPRRP{LYSN3}NH2 (SEQ ID NO: 96), 1 mM peptide, 2 μM enzyme, 2.5 mM ZnCl2, 25 mM Tris pH 8.0, 30° C./1 hr) is reported as greater than 90%.

B2: NPEPPS: puromycin-sensitive aminopeptidase, SEQ ID NO: 56 (protein)
chain: MWLAAAAPSLARRLLFLGPPPPPLLLLVFSRSSRRRLHSLGLAAMPEKRPFERLPADVSPINYSLCLKPDLLDFTFEGKLEAAAQVRQATNQIVMNCADIDIITASYAPEGDEEIHATGFNYQNEDEKVTLSFPSTLQTGTGTLKIDFVGELNDKMKGFYRSKYTTPSGEVRYAAVTQFEATDARRAFPCWDEPAIKATFDISLVVPKDRVALSNMNVIDRKPYPDDENLVEVKFARTPVMSTYLVAFVVGEYDFVETRSKDGVCVRVYTPVGKAEQGKFALEVAAKTLPFYKDYFNVPYPLPKIDLIAIADFAAGAMENWGLVTYRETALLIDPKNSCSSSRQWVALVVGHELAHQWFGNLVTMEWWTHLWLNEGFASWIEYLCVDHCFPEYDIWTQFVSADYTRAQELDALDNSHPIEVSVGHPSEVDEIFDAISYSKGASVIRMLHDYIGDKDFKKGMNMYLTKFQQKNAATEDLWESLENASGKPIAAVMNTWTKQMGFPLIYVEAEQVEDDRLLRLSQKKFCAGGSYVGEDCPQWMVPITISTSEDPNQAKLKILMDKPEMNVVLKNVKPDQWVKLNLGTVGFYRTQYSSAMLESLLPGIRDLSLPPVDRLGLQNDLFSLARAGIISTVEVLKVMEAFVNEPNYTVWSDLSCNLGILSTLLSHTDFYEEIQEFVKDVFSPIGERLGWDPKPGEGHLDALLRGLVLGKLGKAGHKATLEEARRRFKDHVEGKQILSADLRSPVYLTVLKHGDGTTLDIMLKLHKQADMQEEKNRIERVLGATLLPDLIQKVLTFALSEEVRPQDTVSVIGGVAGGSKHGRKAAWKFIKDNWEELYNRYQGGFLISRLIKLSVEGFAVDKMAGEVKAFFESHPAPSAERTIQQCCENILLNAAWLKRDAESIHQYLLQRKASPPTV
modifications: Puromycin-sensitive aminopeptidase
With B2 the “HPLC Assay Conv” value (substrate LeuTyr 5 mM, 700 nM enzyme, 25 mM HEPES, 1 mM Mg(OAc)2, 1 mM DTT, pH 7.5, 37° C./1 hr) was 5%.

B3: VPr pAzF (protein)
chain: MPPITQQATVTAWLPQVDASQITGTISSLESFTNRFYTTTSGAQASDWIASEWQALSASLPNASVKQVSHSGYNQKSVVMTITGSEAPDEWIVIGGHLDSTIGSHTNEQSVAPGADDDASGIAAVTEVIRVLSENNFQPKRSIAFMAYAAEEVGLRGSQDLANQYKSEGKNVVSALQLDMTNYKGSAQDVVFITDYTDSNFTQYLTQLMDEYLPSLTYGFDTCGYACSDHASWHNAGYPAAMPFESKFNDYNPRIHTTQDTLANSDPTGSHAKKFTQLGLAYAIEMGSATGDTPTPGNQ
modifications: non-natural residues
In the case of B3, the “HPLC Assay Conv” value (substrate […]{LYSN3}NH2 (SEQ ID NO: 107), 200 μM Peptide, 4 μM enzyme, 10 mM MgCl2, 50 mM MOPS pH 8.0, 37° C./1 hr) is reported as 96%.
